# Measured values as given in publication PMC9247205.
# Target: GST-SF1KQ (EhSF1 KH-QUA2 domain) (Entamoeba histolytica) (UniProt C4M4V3)
# Assay: EMSA
# Settings: EMSA: 50 ug protein (Fig 4), 200 fmol probe, 20 min (+10 min with U2 snRNA); binding buffer as in Ortuno-Pineda 2012, not given; UV crosslinking at pH 7.6 or …
row,Sequence,binding signal [%]
1,AACUUUUAUUU [E. histolytica RabX13 intron BS probe (P+)],50
2,UAUACUAACAA [yeast canonical BS probe (C+)],50
